Experimental data published in US20100111986A1 (Memorial Sloan Kettering, published 2010).

Molecular target: T1, HLA-A0301 (human)
T1 construct: MHC class I molecule on Raji HLA-A0301 cells
Experiment: stabilization assay on Raji HLA-A0301 cells

binding result | Binder
binds | NMHQRNMTK [A3 WT-1 A (native)]
binds | NMYQRNMTK [A3 WT-1 A1 (ANALOGUE)]
binds | NMHQRVMTK [A3WT-1 A2 (ANALOGUE)]
binds | NMYQRVMTK [A3 WT-1 A3 (ANALOGUE)]
binds | FMCAYPGCNK [A3WT-1 C (native)]
binds | FMCAYPFCNK [A3 WT-1 C2 (ANALOGUE)]
binds | FMYAYPFCNK [A3 WT-1 C3 (ANALOGUE)]
binds | FMYAYPGCNK [A3WT-1 C1 (ANALOGUE)]
binds | QMNLGATLK [A3 WT-1 B (native)]
binds | QMNLGVTLK [A3WT-1 B2 (ANALOGUE)]
binds | QMYLGVTLK [A3WT-1 B3 (ANALOGUE)]
binds | QMYLGATLK [A3WT-1 B1 (ANALOGUE)]
binds | KLSHLQMHSR [A3WT-1 D (native)]
binds | KLYHLQMHSR [A3WT-1 D1 (ANALOGUE)]
binds | KLYHLQMHSK [A3 WT-1 D3 (ANALOGUE)]
binds | KLSHLQMHSK [A3 WT-1 D2 (ANALOGUE)]

Molecular target: T2, HLA-A0201 (human)
T2 construct: MHC class I molecule on T2 cells; also called HLA-A2.1; HLA 0201
Experiment: T2 cell HLA stabilization assay, flow cytometry
Experimental: T2 cells (TAP″, HLA-A0201⁺) were incubated overnight at 27° C. at a concentration of 1×10⁶ cells/ml in FCS-free RPMI medium supplemented with 5 μg/ml human β₂m (Sigma, St Louis, Mo.) in the absence (negative control) or presence of either a positive reference tyrosinase peptide or test peptides at various final concentrations (50, 10, 1, and 0.1 micrograms (μg)/ml). Following a 4-hour incubation with 5 μg/ml brefeldin A (Sigma), T2 cells were labeled for 30 minutes at 4° C. with a saturating concentration of anti-HLA-A2.1 (BB7.2) mAb, then washed twice. Cells were then incubated for 30 minutes, 4° C. with a saturating concentration of FITC-conjugated goat IgG F(ab′)2 anti-mouse Ig (Caltag, San Francisco, Calif.), washed twice, fixed in PBS/1% paraformaldehyde and analyzed using a FACS Calibur® cytofluorometer (Becton Dickinson, Immunocytometry Systems, San Jose, Calif.).
The mean intensity of fluorescence (MIF) observed for each peptide concentration (after dividing by the MIF in the absence of peptide) was used as an indication of peptide binding and expressed as a “fluorescence index.” Stabilization assays were performed similarly. Following initial evaluation of peptide binding at time 0, cells were washed in RPMI complete medium to remove free peptides and incubated in the continuous presence of 0.5 μg/ml brefeldin-A for 2, 4, 6 or 8 hours.

binding result | Binder
binds | YLLPAVPSL [WT-1 C1 (ANALOGUE)]
binds | ALLPAVPSL [WT-1 C (native)]
binds | YMFPNAPYL [WT-1 A1 (ANALOGUE)]
binds | RMFPNAPYL [WT-1 A (native)]
binds | YLGATLKGV [WT-1 D1 (ANALOGUE)]
binds | NLGATLKGV [WT-1 D (native)]
binds | YLGEQQYSV [WT-1 B1 (ANALOGUE)]
binds | SLGEQQYSV [WT-1 B (native)]
